Assay [1] addresses VEGF-B (extracellular domain) (UniProt P49765). Briefly: potency ELISA, VEGF-B coated plate; 160 mg/mL formulation in glass vials, 0 months (35 C table).
The target is the same in assay [2]. Briefly: potency ELISA, VEGF-B coated plate; 160 mg/mL formulation in glass vials, 9 months at 25 C. For orientation: In an ELISA, binding on a coated surface is turned into a signal by an enzyme label.
The target is the same in assay [3]. In words: potency ELISA, VEGF-B coated plate; 160 mg/mL formulation in glass vials, 12 months at 35 C.
For assay [4] the target is unchanged. Briefly: potency ELISA, VEGF-B coated plate; 160 mg/mL formulation in glass vials, 6 months at 5 C.
The target is the same in assay [5]. Briefly: potency ELISA, VEGF-B coated plate; 160 mg/mL formulation in glass vials, 3 months at 5 C.
The target is the same in assay [6]. Briefly: potency ELISA, VEGF-B coated plate, HRP detection, 4PL and parallel line analysis; 160 mg/mL formulation in glass vials, 0 months (5 C table).
The target is the same in assay [7]. Briefly: potency ELISA, VEGF-B coated plate; 160 mg/mL formulation in glass vials, 1 month at 35 C.
Assay [8] has the same target. In words: potency ELISA, VEGF-B coated plate; 160 mg/mL formulation in glass vials, 1 month at 25 C.
For assay [9] the target is unchanged. Briefly: potency ELISA, VEGF-B coated plate; 160 mg/mL formulation in glass vials, 9 months at 35 C.
The target is the same in assay [10]. Briefly: potency ELISA, VEGF-B coated plate; 160 mg/mL formulation in glass vials, 12 months at 25 C.
For assay [11] the target is unchanged. Briefly: potency ELISA, VEGF-B coated plate; 160 mg/mL formulation in glass vials, 3 months at 25 C.
Assay [12] has the same target. Briefly: potency ELISA, VEGF-B coated plate; 160 mg/mL formulation in glass vials, 6 months at 25 C.
For assay [13] the target is unchanged. In words: potency ELISA, VEGF-B coated plate; 160 mg/mL formulation in glass vials, 1 month at 5 C.
Assay [14] shares this target. Briefly: potency ELISA, VEGF-B coated plate; 160 mg/mL formulation in glass vials, 3 months at 35 C.
The target is the same in assay [15]. Briefly: potency ELISA, VEGF-B coated plate; 160 mg/mL formulation in glass vials, 12 months at 5 C.
Assay [16] has the same target. Briefly: potency ELISA, VEGF-B coated plate; 160 mg/mL formulation in glass vials, 9 months at 5 C.
For assay [17] the target is unchanged. Briefly: potency ELISA, VEGF-B coated plate; 160 mg/mL formulation in glass vials, 6 months at 35 C.
Assay [18] has the same target. In words: potency ELISA, VEGF-B coated plate; 160 mg/mL formulation in glass vials, 0 months (25 C table).

UniProt P49765, sequence (P49765 22-207): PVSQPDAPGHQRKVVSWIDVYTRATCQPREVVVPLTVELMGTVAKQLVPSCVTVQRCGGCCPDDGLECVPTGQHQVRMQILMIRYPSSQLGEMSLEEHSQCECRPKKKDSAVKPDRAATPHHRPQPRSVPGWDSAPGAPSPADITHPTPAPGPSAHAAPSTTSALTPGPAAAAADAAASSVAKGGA

For anti-VEGFB antibody (CSL346), the Surrogate potency for VEGF-B binding by ELISA (relative to CSL346 reference standard) (% relative to reference standard) came to 105 in assay [1]; 101 in assay [2]; 106 in assay [3]; 101 in assay [4]; 96 in assay [5]; 105 in [6]. The Surrogate potency for VEGF-B binding by ELISA (relative to CSL346 reference standard) (% relative to reference standard) came to 115 in [7]; 107 in [8]; 98 in assay [9]; 136 in assay [10]; 113 in assay [11]; 95 in [12]. The Surrogate potency for VEGF-B binding by ELISA (relative to CSL346 reference standard) (% relative to reference standard) in assay [13] stood at 109; in assay [14], 92; in [15], 110; in [16], 109; in assay [17], 95; in [18], 105.
